T1: KRAS G12C peptide on HLA-A*11:01 (human)
T1 peptide: VVVGACGVGK

T2: KRAS G12S peptide on HLA-A*11:01 (human)
T2 peptide: VVVGASGVGK

T3: KRAS G12A peptide on HLA-A*11:01 (human)
T3 peptide: VVVGAAGVGK

T4: KRAS G12V peptide on HLA-A*11:01 (human)
T4 peptide: VVVGAVGVGK

T5: KRAS G12D peptide on HLA-A*11:01 (human)
T5 peptide: VVVGADGVGK


Legend:
[1] = target: HLA-A*11:01 loaded with KRAS-G12D peptide … (human); assay: cell-based or functional assay
[2] = target: HLA-A*11:01 loaded with KRAS-G12V peptide … (human); assay: cell-based or functional assay
[3] = target: T1, KRAS G12C peptide on HLA-A*11:01; assay: killing
[4] = target: T2, KRAS G12S peptide on HLA-A*11:01; assay: killing
[5] = target: T3, KRAS G12A peptide on HLA-A*11:01; assay: killing
[6] = target: T4, KRAS G12V peptide on HLA-A*11:01; assay: CD69 by flow cytometry; TCR1-transduced Jurkat cells with K562-A*11:01 loaded with peptide at 10^-11 to 10^-6 M; full-length, on cells
[7] = target: T5, KRAS G12D peptide on HLA-A*11:01; assay: as above

EC50 of CD69 expression of TCR-transduced cells after co-incubation with target cells loaded with graded peptide concentrations [1] [nM] | EC50 of CD69 expression of TCR-transduced cells after co-incubation with target cells loaded with graded peptide concentrations [2] [nM] | EC50 of peptide [6] [nM] | EC50 of peptide [7] [nM] | Binder | binding result [3] | binding result [4] | binding result [5]
77 | 45 | – | – | HLA-A*11:01/KRAS G12V-specific TCR1 (TCR) TCR alpha: KQEVTQIPAALSVPEGENLVLNCSFTDSAIYNLQWFRQDPGKGLTSLLLIQSSQREQTSGRLNASLDKSSGRSTLYIAASQPGDSATYLCAVNSYSGAGSYQLTFGKGTKLSVIPNIQNPDPAVYQLRDSKSSDKSVCLFTDFDSQTNVSQSKDSDVYITDKTVLDMRSMDFKSNSAVAWSNKSDFACANAFNNSIIPEDTFFPSPESSCDVKLVEKSFETDTNLNFQNLSVIGFRILLLKVAGFNLLMTLRLWSS TCR beta: EPEVTQTPSHQVTQMGQEVILRCVPISNHLYFYWYRQILGQKVEFLVSFYNNEISEKSEIFDDQFSVERPDGSNFTLKIRSTKLEDSAMYFCASRGGGEQYFGPGTRLTVTEDLKNVFPPEVAVFEPSEAEISHTQKATLVCLATGFYPDHVELSWWVNGKEVHSGVSTDPQPLKEQPALNDSRYCLSSRLRVSATFWQNPRNHFRCQVQFYGLSENDEWTQDRAKPVTQIVSAEAWGRADCGFTSESYQQGVLSATILYEILLGKATLYAVLVSALVLMAMVKRKDSRG | – | – | –
– | – | ~45 | ~77 | TCR1 (TCR, V domains shown) Valpha: KQEVTQIPAALSVPEGENLVLNCSFTDSAIYNLQWFRQDPGKGLTSLLLIQSSQREQTSGRLNASLDKSSGRSTLYIAASQPGDSATYLCAVNSYSGAGSYQLTFGKGTKLSVIP Vbeta: EPEVTQTPSHQVTQMGQEVILRCVPISNHLYFYWYRQILGQKVEFLVSFYNNEISEKSEIFDDQFSVERPDGSNFTLKIRSTKLEDSAMYFCASRGGGEQYFGPGTRLTVT | recognises | recognises | recognises

— patent EP4647441A1 (dated 2025)
